Experimental findings from the supplement of paper PMC9170038 are described below.

The data set deals with MS2 coat protein. The experiment in a line: apparent KD of MS2 coat protein; designed switch direction (-1 OFF switch, 1 ON switch): -1; higher = weaker reporter binding. In short, it runs like this: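 An oligonucleotide input, 200 uM small-molecule ligand, or no input was present during titration of SNAP-549-labelled MS2 coat protein, which was doubled from 0.7 or 1.5 nM to 3 µM. Designed RNA switches had been transcribed on Illumina chips by stalled E. coli RNA polymerase. Apparent KD per design is the median over clusters of curves fitted to normalised cluster fluorescence.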

The mark [1] stands for this setting: input ligand: microRNA oligo, concentration not stated.
Where [2] appears, read: Eterna round: R95, input ligand: FMN 200 uM.
[3] abbreviates: Eterna round: R95, input ligand: microRNA oligo, concentration not stated.
Setting [4] is: Eterna round: R95, input ligand: none.

For the sequence “UGUUGUCGCGCAGGAUAUUGUCAACAGGCAAUAGGAUAUCCGAAAGGAGAAGGAUCGCCAACAGGCGAGAAGGGCGGGACAACU [pwkr exNG2 2xF7 2xFMN.4] (Eterna round: R96, puzzle: Exclusion NG 2)”, the “apparent KD of MS2 coat protein” value (input ligand: FMN 200 uM) stood at 35.4 nM, the “apparent KD of MS2 coat protein” value under setting [1] was 478 nM and the “apparent KD of MS2 coat protein” value (input ligand: none) was determined as 1200 nM.

“AGUAGUAGUAUCCGAUCCUACAUGAGGAUCACCCAUGUAGGUAGACGUGCACGCGAUGCUCGUCAGACUACCAGAUG [salish99_TOv1_r3_039] (puzzle: Sensor v3, turn-off variant 1)”: the “apparent KD of MS2 coat protein” value stood at 12.1 nM under setting [2], 11.4 nM under setting [3] and 13.4 nM under setting [4].

Turning to “AAAUAACAAGCGAGAUCCUACAUGAGGAUCACCCAUGUGCUCGUCUUAUAAAGUACUAUCACGAAAGUGAUAGUACA [Sensor 3, v1 - 13] (puzzle: Sensor v3, turn-off variant 1)”, the “apparent KD of MS2 coat protein” value turned out to be 16.4 nM under setting [2], 50.8 nM under setting [3] and 16.3 nM under setting [4].

As to “AUCAUGUAAGGAUAUGAAAGUAAACGCGUGAAGACCACGCAUCAGAAGGUACAUGAGGAUCACCCAUGUGUCCG [Soesatle] (Eterna round: R97, puzzle: Exclusion 4)”, the “apparent KD of MS2 coat protein” value turned out to be 60.6 nM (input ligand: FMN 200 uM) and 19.8 nM (input ligand: none).

Turning to “AUUGAUGUUGAGGAUAUGCUUAUAUUUAUACUUGCAGAAGGCGAUACAUGAGGAUCACCCAUGUUCAUGGAAGU [JR_E6_Sub092] (puzzle: Exclusion 6)”, the “apparent KD of MS2 coat protein” value under setting [3] amounted to 26.2 nM.

Consider “CUUCGACAUGAGGAUCACCCAUGUCAGGAUAUUGUUUAUCUGGUUUUUUACAGAUAUGCAAGAAGGGAUGUGUU [LRO-Excl1-03] (puzzle: Exclusion 1)”, for which the “apparent KD of MS2 coat protein” value under setting [3] was 26.5 nM.

“GCAGCAUAGUUUACUAACUGUUACAUGAGGAUCACCCAUGUUCAGGAUAUGGUCUGGAUUACAGGCCAGAAGGGAACAAGCUGC [Eli exng3 - 026] (Eterna round: R96, puzzle: Exclusion NG 3)”: the “apparent KD of MS2 coat protein” value is, setting by setting: (input ligand: FMN 200 uM) 7.64 nM; under setting [1], 8.42 nM; (input ligand: none) 11.3 nM.

Turning to “UAAUAGUAUGUUAGGAUAUGCUGGUCCUUGGAUCAGCAGAAGGAACAUGAGGAUCACCCAUGUAGAAUAUUUUA [Mod of JL 18 - Jieux - Brourd's mod of Exclusion 4] (Eterna round: R97, puzzle: Brourd's mod of Exclusion 4)”, the “apparent KD of MS2 coat protein” value by setting is: (input ligand: FMN 200 uM) 56.8 nM; (input ligand: none) 18.1 nM.

As to “GUGUGCUGAGGAUAUACAGAGGAAGAUAAUACAAUAUAAGUACAUGAGGAUCACCCAUGUAGAAGGCAGAGUGU [Excluse me!! 11 - Jieux - Exclusion 2] (puzzle: Exclusion 2)”, under setting [3], the “apparent KD of MS2 coat protein” value came out at 23.4 nM.

On to “AGUAGUUCAGGAUAUGAUGUUAAGUACAUGAGGAUCACCCAUGUAGGUCCUGGAUUUACAUCAGAAGGGAAUAACU [JR_Ex5_Sub083] (Eterna round: R97, puzzle: Exclusion 5)”, for which the “apparent KD of MS2 coat protein” value by setting is: (input ligand: FMN 200 uM) 60.4 nM; (input ligand: none) 23.6 nM.

“CGUCUGUCAGGAUAUACUUACGUAGACAUGAGGAUCACCCAUGUGACGUGGGACUGGUGAGUAGAAGGGACGAACA [EX5 #75] (Eterna round: R97, puzzle: Exclusion 5)”: the “apparent KD of MS2 coat protein” value by setting is: (input ligand: FMN 200 uM) 28 nM; (input ligand: none) 30.6 nM.

Consider “UAAAGACAUGAGGAUCACCCAUGUAAGGAUAUCGCCUGCGGUGGCGCCAGCCAUUAGGCGAGAAGGUGCGGUGA [Eternabot (L1) Solution 14] (Eterna round: R97, puzzle: Exclusion 1)”, for which the “apparent KD of MS2 coat protein” value (input ligand: FMN 200 uM) was 326 nM and the “apparent KD of MS2 coat protein” value (input ligand: none) was determined as 417 nM.

With “UUUGAAUAAGUGAGGAUAUACUGUUAGUAUUGAUUGUAGAAGGUACAUGAGGAUCACCCAUGUUUAGUAUUUAU [JR_BME4_Sub038] (puzzle: Brourd's mod of Exclusion 4)”, the “apparent KD of MS2 coat protein” value under setting [3] was determined as 15.6 nM.
